Results reported in patent US20040001835A1, “Prevention or treatment of cancer using integrin alphavbeta3 antagonists in combination with other agents” (MedImmune, Inc., priority 2002, published 2004).

Tests used:
Rat αvβ3 = biological target: T1, Rat αvβ3 (Rattus norvegicus, UniProt Q8R2H2); test: Flow cytometric analysis of antibody binding to cell lines; conditions: Rat RG2 glioma; 5×10^5 cells, 0.5 μg antibody; vs isotype matched control antibody
T1 construct: endogenous in cells; host or cells: RG2 glioma
T1 sequence (Q8R2H2 26-787): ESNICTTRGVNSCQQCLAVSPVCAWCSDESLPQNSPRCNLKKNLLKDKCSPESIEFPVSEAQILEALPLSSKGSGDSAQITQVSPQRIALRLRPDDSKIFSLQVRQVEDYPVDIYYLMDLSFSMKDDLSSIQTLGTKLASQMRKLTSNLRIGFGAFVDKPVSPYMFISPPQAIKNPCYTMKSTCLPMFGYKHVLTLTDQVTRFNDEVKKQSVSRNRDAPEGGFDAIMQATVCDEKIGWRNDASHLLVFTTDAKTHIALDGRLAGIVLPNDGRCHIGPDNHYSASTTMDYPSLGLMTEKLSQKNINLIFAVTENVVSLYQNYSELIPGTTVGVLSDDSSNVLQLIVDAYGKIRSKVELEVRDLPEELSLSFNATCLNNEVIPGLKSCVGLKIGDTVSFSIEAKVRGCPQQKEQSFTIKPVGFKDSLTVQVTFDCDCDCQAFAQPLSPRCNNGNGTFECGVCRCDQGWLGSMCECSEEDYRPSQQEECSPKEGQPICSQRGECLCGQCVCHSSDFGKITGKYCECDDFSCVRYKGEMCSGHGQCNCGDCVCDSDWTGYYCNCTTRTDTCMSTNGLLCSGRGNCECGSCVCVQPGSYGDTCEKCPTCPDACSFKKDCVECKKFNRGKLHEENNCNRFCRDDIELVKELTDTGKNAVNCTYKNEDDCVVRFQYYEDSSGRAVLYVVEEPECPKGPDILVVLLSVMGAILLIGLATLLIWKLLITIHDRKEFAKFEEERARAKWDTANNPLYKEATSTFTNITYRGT
Method: FIG. 2. Flow cytometric analysis of antibody binding to tumor cell lines. […] Rat αvβ3 was not recognized by any of the three antibodies but was detected by the anti-rat αvβ3 control antibody.
Cells (5×10^5) were incubated with 0.5 μg of antibody and bound antibody was detected with a phycoerythrin-labeled secondary antibody. Mean channel fluorescence results are expressed as fold increase over an isotype matched control antibody. The mouse anti-rat β3 antibody F11 was included for as a positive control for the rat cell line RG2. HMVEC, human microvascular endothelial cells; ND, not done.

mouse Integrin αVβ3 = biological target: T2, mouse Integrin αVβ3 (Mus musculus, UniProt O54890); test: Binding to mouse Integrin αVβ3
T2 sequence (O54890 26-787): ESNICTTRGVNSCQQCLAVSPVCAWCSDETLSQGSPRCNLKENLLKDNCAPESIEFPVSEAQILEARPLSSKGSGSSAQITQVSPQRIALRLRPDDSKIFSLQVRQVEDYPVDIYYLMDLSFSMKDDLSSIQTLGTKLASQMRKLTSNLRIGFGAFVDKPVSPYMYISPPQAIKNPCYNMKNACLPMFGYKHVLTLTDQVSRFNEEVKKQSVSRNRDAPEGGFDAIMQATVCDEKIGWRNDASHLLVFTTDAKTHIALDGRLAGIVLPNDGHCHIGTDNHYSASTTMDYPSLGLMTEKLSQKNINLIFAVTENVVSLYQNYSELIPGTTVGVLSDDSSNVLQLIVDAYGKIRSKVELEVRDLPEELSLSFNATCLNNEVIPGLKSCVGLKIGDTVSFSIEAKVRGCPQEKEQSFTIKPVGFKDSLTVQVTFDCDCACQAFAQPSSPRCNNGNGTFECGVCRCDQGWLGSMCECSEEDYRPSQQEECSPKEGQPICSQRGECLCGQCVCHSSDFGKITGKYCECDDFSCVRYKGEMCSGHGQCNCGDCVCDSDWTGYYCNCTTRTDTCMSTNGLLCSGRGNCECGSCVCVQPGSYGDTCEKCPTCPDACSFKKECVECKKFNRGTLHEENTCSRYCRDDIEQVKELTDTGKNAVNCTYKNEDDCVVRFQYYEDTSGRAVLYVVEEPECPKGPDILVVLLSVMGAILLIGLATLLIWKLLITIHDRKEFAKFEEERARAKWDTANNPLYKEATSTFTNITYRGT
T2 sequence (P43406 31-885 partner limits assumed): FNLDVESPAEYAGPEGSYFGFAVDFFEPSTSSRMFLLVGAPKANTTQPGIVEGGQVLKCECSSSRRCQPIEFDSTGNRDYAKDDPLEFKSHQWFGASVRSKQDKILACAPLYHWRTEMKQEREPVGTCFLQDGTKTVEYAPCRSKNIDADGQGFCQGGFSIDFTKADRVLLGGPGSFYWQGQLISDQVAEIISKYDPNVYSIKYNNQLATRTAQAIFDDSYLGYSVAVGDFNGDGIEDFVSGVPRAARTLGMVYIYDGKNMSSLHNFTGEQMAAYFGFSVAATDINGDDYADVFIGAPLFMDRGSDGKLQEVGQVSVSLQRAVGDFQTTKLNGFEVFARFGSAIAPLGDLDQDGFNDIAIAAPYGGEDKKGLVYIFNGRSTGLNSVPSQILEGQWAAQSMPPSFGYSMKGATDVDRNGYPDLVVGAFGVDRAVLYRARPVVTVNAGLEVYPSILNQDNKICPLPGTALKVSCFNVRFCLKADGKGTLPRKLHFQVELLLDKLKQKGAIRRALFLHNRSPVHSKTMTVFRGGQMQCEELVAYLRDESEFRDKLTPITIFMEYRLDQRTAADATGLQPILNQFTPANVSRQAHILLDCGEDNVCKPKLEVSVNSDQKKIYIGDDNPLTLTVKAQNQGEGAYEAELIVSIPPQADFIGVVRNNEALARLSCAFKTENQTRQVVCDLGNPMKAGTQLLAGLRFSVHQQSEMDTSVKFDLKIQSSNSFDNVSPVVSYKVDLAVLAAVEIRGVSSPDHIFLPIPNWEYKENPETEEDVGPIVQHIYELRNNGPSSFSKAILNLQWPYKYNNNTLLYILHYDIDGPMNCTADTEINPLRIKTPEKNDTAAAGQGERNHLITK
T2 sequence (P43406 887-1044 partner limits assumed): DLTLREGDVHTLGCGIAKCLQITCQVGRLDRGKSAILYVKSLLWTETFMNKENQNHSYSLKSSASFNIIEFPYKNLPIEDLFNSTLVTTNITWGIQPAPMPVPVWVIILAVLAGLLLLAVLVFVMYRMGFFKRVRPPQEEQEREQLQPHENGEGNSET

Fold Increase Over Control (mean channel fluorescence) (Rat αvβ3): 0.95 fold
binding to mouse Integrin αVβ3 (mouse Integrin αVβ3): do not bind
B1: Vitaxin®: humanized blocking monoclonal antibody that binds Integrin αVβ3 (MEDI-522, MedImmune); humanized and optimized version of LM609 (antibody, chains of the INN, looked up, V domains shown)
VH: QVQLVESGGGVVQPGRSLRLSCAASGFTFSSYDMSWVRQAPGKGLEWVAKVSSGGGSTYYLDTVQGRFTISRDNSKNTLYLQMNSLRAEDTAVYYCARHLHGSFASWGQGTTVTVSS
VL: EIVLTQSPATLSLSPGERATLSCQASQSISNFLHWYQQRPGQAPRLLIRYRSQSISGIPARFSGSGSGTDFTLTISSLEPEDFAVYYCQQSGSWPLTFGGGTKVEIK
